Data as given in publication PMC8122577, “Estrogen-Related Receptor Influences the Hemolymph Glucose Content by Regulating Midgut Trehalase Gene Expression in the Last Instar Larvae of Bombyx mori”.

T1: BmERR DBD (Bombyx mori, UniProt A0A1B1M0R7 103-178)
T1 sequence: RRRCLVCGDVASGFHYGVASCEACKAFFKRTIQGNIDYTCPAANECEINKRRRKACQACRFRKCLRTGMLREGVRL

B1: ERRE-like CRE 2 (dsDNA)
DNA 1: CATTGGTGACCTACATGGC
DNA 2: GCCATGTAGGTCACCAATG
B2: ERRE-like CRE 6 (dsDNA)
DNA 1: GCCTACAAGGGCAATAAAA
DNA 2: TTTTATTGCCCTTGTAGGC
B3: ERRE-like CRE 1 (dsDNA)
DNA 1: GGGTTCTGACCTCGGAGGG
DNA 2: CCCTCCGAGGTCAGAACCC
B4: ERRE-like CRE 4 (dsDNA)
DNA 1: CGATACAAGGTCAACGAGA
DNA 2: TCTCGTTGACCTTGTATCG

Tests used:
[1] = molecular target: T1, BmERR DBD; assay: EMSA; inhibited by competitive probe; EMSA (Beyotime chemiluminescent kit), 25 °C 20 min; 5% native PAGE in 45 mM Tris-borate, 1 mM EDTA pH 8.3; binding buffer not given; conditions: protein: recombinant; label: 3'-end biotin; blunt
[2] = molecular target: T1, BmERR DBD; assay: EMSA; dose-dependent; reduced by anti-BmERR antibody or competitive probe; EMSA (Beyotime chemiluminescent kit), 25 °C 20 min; 5% native PAGE in 45 mM Tris-borate, 1 mM EDTA pH 8.3; binding buffer not given; conditions: protein: recombinant; label: 3'-end biotin; blunt

| Binder | binding result [1] | binding result [2] |
| --- | --- | --- |
| B1 | binds | – |
| B2 | binds | – |
| B3 | binds | – |
| B4 | – | binds |
